# B1: OATP3A1_V2 (Homo sapiens; E294D) (protein)
# chain: MQGKKPGGSSGGGRSGELQGDEAQRNKKKKKKVSCFSNIKIFLVSECALMLAQGTVGAYLVSVLTTLERRFNLQSADVGVIASSFEIGNLALILFVSYFGARGHRPRLIGCGGIVMALGALLSALPEFLTHQYKYEAGEIRWGAEGRDVCAANGSGGDEGPDPDLICRNRTATNMMYLLLIGAQVLLGIGATPVQPLGVSYIDDHVRRKDSSLYIGILFTMLVFGPACGFILGSFCTKIYVDAVFIDTSNLDITPDDPRWIGAWWGGFLLCGALLFFSSLLMFGFPQSLPPHSDPAMESEQAMLSEREYERPKPSNGVLRHPLEPDSSASCFQQLRVIPKVTKHLLSNPVFTCIILAACMEIAVVAGFAAFLGKYLEQQFNLTTSSANQLLGMTAIPCACLGIFLGGLLVKKLSLSALGAIRMAMLVNLVSTACYVSFLFLGCDTGPVAGVTVPYGNSTAPGSALDPYSPCNNNCECQTDSFTPVCGADGITYLSACFAGCNSTNLTGCACLTTVPAENATVVPGKCPSPGCQEAFLTFLCVMCICSLIGAMAQTPSVIILIRTVSPELKSYALGVLFLLLRLLGFIPPPLIFGAGIDSTCLFWSTFCGEQGACVLYDNVVYRYLYVSIAIALKSFAFILYTTTWQCLRKNYKRYIKNHEGGLSTSTEYQDIETEKTCPESHSPSEDSFVRS
# notes: full-length ORF from brain RNA, 692 residues, E294D polymorphism (rs1517618), untagged, lentiviral overexpression in HEK-293
# B2: OATP3A1_V1 (Homo sapiens; E294D) (protein)
# chain: MQGKKPGGSSGGGRSGELQGDEAQRNKKKKKKVSCFSNIKIFLVSECALMLAQGTVGAYLVSVLTTLERRFNLQSADVGVIASSFEIGNLALILFVSYFGARGHRPRLIGCGGIVMALGALLSALPEFLTHQYKYEAGEIRWGAEGRDVCAANGSGGDEGPDPDLICRNRTATNMMYLLLIGAQVLLGIGATPVQPLGVSYIDDHVRRKDSSLYIGILFTMLVFGPACGFILGSFCTKIYVDAVFIDTSNLDITPDDPRWIGAWWGGFLLCGALLFFSSLLMFGFPQSLPPHSDPAMESEQAMLSEREYERPKPSNGVLRHPLEPDSSASCFQQLRVIPKVTKHLLSNPVFTCIILAACMEIAVVAGFAAFLGKYLEQQFNLTTSSANQLLGMTAIPCACLGIFLGGLLVKKLSLSALGAIRMAMLVNLVSTACYVSFLFLGCDTGPVAGVTVPYGNSTAPGSALDPYSPCNNNCECQTDSFTPVCGADGITYLSACFAGCNSTNLTGCACLTTVPAENATVVPGKCPSPGCQEAFLTFLCVMCICSLIGAMAQTPSVIILIRTVSPELKSYALGVLFLLLRLLGFIPPPLIFGAGIDSTCLFWSTFCGEQGACVLYDNVVYRYLYVSIAIALKSFAFILYTTTWQCLRKNYKRYIKNHEGGLSTSEFFASTLTLDNLGRDPVPANQTHRTKFIYNLEDHEWCENMESVL
# notes: full-length ORF from brain RNA, 710 residues, E294D polymorphism (rs1517618), untagged, lentiviral overexpression in HEK-293
# B3: OATP3A1_V3 (Homo sapiens; E294D) (protein)
# chain: MQGKKPGGSSGGGRSGELQGDEAQRNKKKKKKVSCFSNIKIFLVSECALMLAQGTVGAYLVSVLTTLERRFNLQSADVGVIASSFEIGNLALILFVSYFGARGHRPRLIGCGGIVMALGALLSALPEFLTHQYKYEAGEIRWGAEGRDVCAANGSGGDEGPDPDLICRNRTATNMMYLLLIGAQVLLGIGATPVQPLGVSYIDDHVRRKDSSLYIGILFTMLVFGPACGFILGSFCTKIYVDAVFIDTSNLDITPDDPRWIGAWWGGFLLCGALLFFSSLLMFGFPQSLPPHSDPAMESEQAMLSEREYERPKPSNGVLRHPLEPDSSASCFQQLRVIPKVTKHLLSNPVFTCIILAACMEIAVVAGFAAFLGKYLEQQFNLTTSSANQLLGMTAIPCACLGIFLGGLLVKKLSLSALGAIRMAMLVNLVSTACYVSFLFLGCDTGPVAGVTVPYGNSTAPGSALDPYSPCNNNCECQTDSFTPVCGADGITYLSACFAGCNSTNLTGCACLTTVPAENATVVPGKCPSPGCQEAFLTFLCVMCICSLIGAMAQTPSVIILIRTVSPELKSYALGVLFLLLRLLGFIPPPLIFGAGIDSTCLFWSTFCGEQGACVLYDNVVYRYLYVSIAIALKSFAFILYTTTWQCLRKNYKRYIKNHEGGLSTTSEPDRIQNKERMTSCGRVLEATCAAGPQSLL
# notes: full-length ORF from brain RNA, 697 residues, E294D polymorphism (rs1517618), untagged, lentiviral overexpression in HEK-293; C-terminal peptide (C)VLEATCAAGPQSLL
# Substrate: CCN(CC)c1ccc2cc(/C=C/c3cc[n+](CCCN=[N+]=[N-])cc3S(=O)(=O)[O-])c(=O)oc2c1
# Assay: fluorescent dye uptake by flow cytometry, HEK-293 overexpressing cells
# Type: cell-based, Homo sapiens
# Conditions: pH 7.4, 37 °C, 10 min, 5-400 µM ACPS, mock-subtracted
row,Protein,Km
1,B1,31.7 µM
2,B2,37.7 µM
3,B3,35 µM
